Consider three molecules from US20190256599A1 (GlaxoSmithKline, published 2019).

The labels stand for the following.
B1: rabbit Fc-tagged recombinant human ICOS (Fc fusion, UniProt Q9Y6W8 21-140, looked up, not shown: a dimerising Fc or GST)
chain: EINGSANYEMFIFHNGGVQILCKYPDIVQQFKMQLLKGGQILCDLTKTKGSGNTVSIKSLKFCHSQLSNNSVSFFLYNLDHSHANYYFCNLSIFDPPPFKVTLTGGYLHIYESQLCCQLK
notes: Generated in-house; also called dimeric human ICOS; Fc-fusion version of the recombinant ICOS protein
B3: recombinant ICOS protein (R&D Systems) (receptor, human, UniProt Q9Y6W8 21-141, looked up)
chain: EINGSANYEMFIFHNGGVQILCKYPDIVQQFKMQLLKGGQILCDLTKTKGSGNTVSIKSLKFCHSQLSNNSVSFFLYNLDHSHANYYFCNLSIFDPPPFKVTLTGGYLHIYESQLCCQLKF
notes: Bought; also called ICOS receptor

Experiment [1] concerns the target T1, human ICOS ligand (B7-H2) (human, UniProt O75144 19-258, limits assumed).
T1 construct: also called native ICOS-L; CD275
T1 sequence (looked up): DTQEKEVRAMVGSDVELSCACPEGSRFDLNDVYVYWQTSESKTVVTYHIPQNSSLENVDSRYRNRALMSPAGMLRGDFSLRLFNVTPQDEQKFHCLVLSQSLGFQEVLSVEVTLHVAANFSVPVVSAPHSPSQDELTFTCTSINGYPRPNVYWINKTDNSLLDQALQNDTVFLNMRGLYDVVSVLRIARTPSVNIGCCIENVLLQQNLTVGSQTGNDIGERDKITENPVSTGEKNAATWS
Kind of experiment: Biacore (SPR), human ICOS-L on dimeric human ICOS. On the technique in general: SPR reads the build-up and loss of mass on a sensor chip optically.

For experiment [2], the target named is T1, human ICOS ligand (B7-H2). Kind of experiment: Biacore sensorgrams with fitted curves, ICOS-L on dimeric human ICOS.
Experiment [3] deals with B1. Kind of experiment: BIAcore target capture, capture level hICOS 23.7 RU, Rmax 26.5 RU.
Experiment [4] concerns the target rabbit Fc-tagged recombinant Cynomolgus ICOS (cynomolgus macaque). Kind of experiment: Biacore (SPR), column MONKEY ka (1/Ms).
Experiment [5] addresses B1. Kind of experiment: Biacore (SPR), column HUMAN kd (1/s). The source says: (§1) The ICOS binding data was fitted to a 1:1 kinetics model using the T200 data analysis software.
Experiment [6] has as its target rabbit Fc-tagged recombinant Cynomolgus ICOS (cynomolgus macaque). Nature of the experiment: Biacore (SPR), column MONKEY kd (1/s).
A further experiment deals with T2, human ICOS on cells (human, UniProt Q9Y6W8 21-199).
T2 sequence (looked up): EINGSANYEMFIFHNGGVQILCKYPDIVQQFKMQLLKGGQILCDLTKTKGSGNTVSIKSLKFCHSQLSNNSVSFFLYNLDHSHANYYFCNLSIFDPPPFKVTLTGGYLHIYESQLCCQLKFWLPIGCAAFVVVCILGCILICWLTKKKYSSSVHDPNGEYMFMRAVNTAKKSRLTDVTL
Nature of the experiment: cell-based or functional assay.

Experiment [7] concerns the target B3. Kind of experiment: MSD competition assay on plate-coated ICOS; blocked ligand: human ICOS ligand at 1 ug/mL. On the procedure: MSD plates were incubated overnight at 4° C. with 10 μg/mL recombinant ICOS protein (R&D Systems) diluted in PBS. […] Sulfo-tagged streptavidin at 10 μg/mL in Diluent 100 was used for detection of the biotinylated ligand. All incubations were at room temperature for one hour on a plate shaker unless otherwise noted. The plates were read immediately following MSD Read buffer addition on a MSD MESO Quick Plex SQ 120 and data analyzed on MSD workbench software (Meso-Scale, Rockville, Md.).

Experiment [8] has as its target B1. Kind of experiment: BIAcore target capture, capture level hICOS 39.8 RU, Rmax 40.5 RU.
Experiment [9] has as its target B1. Kind of experiment: SPR, Biacore T200, Fc-tagged recombinant human ICOS, 1:1 kinetics model.
From the text: as §1

The target in a further experiment is human FcγR IIb (human) (UniProt P31994). Kind of experiment: SPR (ProteOn XPR36; table title says BIAcore), His-tagged FcγR captured, antibody as analyte, equilibrium model.
The target of another experiment is human FcγR I (human) (UniProt P12314). The experiment is described as above.
Experiment [10] addresses human FcγR IIa (R131) (human) (UniProt P12318). The description is as above.
Experiment [11] deals with rabbit Fc-tagged recombinant Cynomolgus ICOS (cynomolgus macaque). Nature of the experiment: SPR, Biacore T200, Fc-tagged recombinant cynomolgus ICOS, 1:1 kinetics model.
For experiment [12], the target named is B1. Kind of experiment: SPR, Biacore; affinity of H2L5 for dimeric human ICOS against that of ICOS-L.
In experiment [13] the target is B1. Kind of experiment: Biacore (SPR), column HUMAN ka (1/Ms).
From the text: as §1

For experiment [14], the target named is B3. Nature of the experiment: MSD competition assay: plate-coated recombinant ICOS, H2L5 IgG4PE titrated against 1 µg/mL human ICOS ligand (B7-H2); inhibition is partial. The procedure:
(§2) MSD plates were incubated overnight at 4° C. with 10 μg/mL recombinant ICOS protein (R&D Systems) diluted in PBS. […] Sulfo-tagged streptavidin at 10 μg/mL in Diluent 100 was used for detection of the biotinylated ligand. All incubations were at room temperature for one hour on a plate shaker unless otherwise noted. The plates were read immediately following MSD Readbuffer addition on a MSD MESO Quick Plex SQ 120 and data analyzed on MSD workbench software (Meso Scale Discovery).

Experiment [15] deals with T1, human ICOS ligand (B7-H2). Kind of experiment: MSD plate assay: 1 µg/mL human ICOS ligand (B7-H2) on plate-coated recombinant ICOS, detected with biotinylated anti-ICOS-L and sulfo-tag streptavidin. On the procedure:
as §2

For orientation: Kd means the free concentration of one partner at which half of the binding sites on the other are occupied at equilibrium, for simple one-to-one binding. One may read the kon as a measure of how fast the partners come together. The koff is the first-order rate constant of dissociation.

human FcγR IIb (human), sequence (P31994 46-217 limits assumed): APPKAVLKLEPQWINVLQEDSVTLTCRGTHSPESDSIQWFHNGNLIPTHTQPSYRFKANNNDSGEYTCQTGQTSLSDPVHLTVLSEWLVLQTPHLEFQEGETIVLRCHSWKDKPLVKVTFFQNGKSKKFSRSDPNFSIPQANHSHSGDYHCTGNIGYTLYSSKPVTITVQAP
human FcγR IIa (R131) (human), sequence (P12318 36-218 H167R limits assumed): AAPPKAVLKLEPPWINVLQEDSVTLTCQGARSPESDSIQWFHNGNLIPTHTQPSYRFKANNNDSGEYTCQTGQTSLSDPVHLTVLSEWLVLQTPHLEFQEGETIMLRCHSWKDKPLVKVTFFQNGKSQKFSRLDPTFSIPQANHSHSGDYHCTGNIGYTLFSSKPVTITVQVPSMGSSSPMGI
human FcγR I (human), sequence (P12314 16-288 limits assumed): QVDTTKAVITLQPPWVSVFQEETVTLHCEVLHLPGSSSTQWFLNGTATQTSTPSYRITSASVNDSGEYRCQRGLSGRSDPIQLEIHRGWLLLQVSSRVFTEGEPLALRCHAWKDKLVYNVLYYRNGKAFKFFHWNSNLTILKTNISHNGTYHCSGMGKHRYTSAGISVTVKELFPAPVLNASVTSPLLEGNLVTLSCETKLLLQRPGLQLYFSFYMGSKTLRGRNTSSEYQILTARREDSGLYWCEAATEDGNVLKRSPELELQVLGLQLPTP

For B1, the Kd in experiment [1] and in [2] was 22.6 nM each time.

B2: H2L5 IgG4PE (antibody, V domains shown)
VH: QVQLVQSGAEVKKPGSSVKVSCKASGYTFTDYAMHWVRQAPGQGLEWMGLISIYSDHTNYNQKFQGRVTITADKSTSTAYMELSSLRSEDTAVYYCGRNNYGNYGWYFDVWGQGTTVTVSS
VL: EIVLTQSPATLSLSPGERATLSCSASSSVSYMHWYQQKPGQAPRLLIYDTSKLASGIPARFSGSGSGTDYTLTISSLEPEDFAVYYCFQGSGYPYTFGQGTKLEIK
notes: Humanized variant of murine clone 422.2; human IgG4 with S228P and L235E (EU numbering), called IgG4PE; also called H2L5 hIgG4PE; ICOS IgG4PE
Regarding B2, the results for the stoichiometry in experiment [3] and in experiment [8] were 0.6 and 0.5, respectively. Also, the kon in experiment [4] is 391000 M⁻¹ s⁻¹; in experiment [13], 297000 M⁻¹ s⁻¹. The koff was 0.000396 s⁻¹ in experiment [5] and 0.000371 s⁻¹ in [6]. The “EC50 of IFNγ induction, isolated human CD4+ T cells, immobilized format, first donor” value with human ICOS on cells stood at 3.8 µg/mL. The “EC50 of IFNγ induction, isolated human CD4+ T cells, immobilized format, second donor” value with human ICOS on cells was 4.5 µg/mL. Moreover, the “EC50 of IFNγ induction, isolated human CD4+ T cells, soluble format, first donor” value with human ICOS on cells was 6 µg/mL. Also, the “EC50 of IFNγ induction, isolated human CD4+ T cells, soluble format, second donor” value with human ICOS on cells came to 4.3 µg/mL. The “IC50 (read off the curve)” value in experiment [7] and in [14] was approximately 2 µg/mL throughout. The Kd in experiment [9] amounted to 1.34 nM; with human FcγR IIb (human), 1470 nM; in the experiment with human FcγR I (human), 645 nM; in experiment [10] it was 2500 nM; in experiment [11], 0.95 nM. Also, in experiment [12], the “fold higher affinity than native ICOS-L/CD275” value was approximately 17 fold.
On to B3, for which the binding result in [15] is “binds”.
